Measured values published in US20220348894, “DNA MODIFYING ENZYMES AND ACTIVE FRAGMENTS AND VARIANTS THEREOF AND METHODS OF USE” (LifeEDIT Therapeutics, Inc., published 2022).

Key:
[1] = target: T1, APG07433.1-del (residues 590-597 deleted); experiment: cell_activity; editing rate HEK293T; PAM 3' of target
T1 chain: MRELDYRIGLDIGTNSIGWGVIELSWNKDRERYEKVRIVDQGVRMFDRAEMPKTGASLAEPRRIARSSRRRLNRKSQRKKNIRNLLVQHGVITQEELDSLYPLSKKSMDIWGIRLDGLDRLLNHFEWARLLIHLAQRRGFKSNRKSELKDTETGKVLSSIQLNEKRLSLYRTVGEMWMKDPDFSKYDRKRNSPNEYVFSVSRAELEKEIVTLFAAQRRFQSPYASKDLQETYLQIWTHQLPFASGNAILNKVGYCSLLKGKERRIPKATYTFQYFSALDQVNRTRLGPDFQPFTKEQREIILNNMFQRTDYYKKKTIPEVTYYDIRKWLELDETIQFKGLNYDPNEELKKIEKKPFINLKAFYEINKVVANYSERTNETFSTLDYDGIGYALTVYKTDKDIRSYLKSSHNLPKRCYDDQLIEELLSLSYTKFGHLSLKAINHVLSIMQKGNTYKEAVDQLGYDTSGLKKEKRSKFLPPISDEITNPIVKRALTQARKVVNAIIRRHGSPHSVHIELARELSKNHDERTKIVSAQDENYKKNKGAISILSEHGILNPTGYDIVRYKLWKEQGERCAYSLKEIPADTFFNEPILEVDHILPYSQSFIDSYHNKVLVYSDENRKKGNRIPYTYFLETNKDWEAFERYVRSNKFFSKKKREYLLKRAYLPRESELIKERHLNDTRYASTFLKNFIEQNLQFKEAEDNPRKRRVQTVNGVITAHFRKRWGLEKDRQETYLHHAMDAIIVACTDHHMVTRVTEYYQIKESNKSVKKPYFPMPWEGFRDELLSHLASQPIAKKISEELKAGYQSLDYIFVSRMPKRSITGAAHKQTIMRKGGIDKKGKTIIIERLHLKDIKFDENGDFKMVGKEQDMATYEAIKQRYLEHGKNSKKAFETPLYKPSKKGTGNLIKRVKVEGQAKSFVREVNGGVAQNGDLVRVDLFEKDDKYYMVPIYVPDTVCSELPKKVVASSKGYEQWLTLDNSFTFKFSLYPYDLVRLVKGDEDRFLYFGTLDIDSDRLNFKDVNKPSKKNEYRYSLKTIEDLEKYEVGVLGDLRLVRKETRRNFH
Text: (§1) Through alignment with closely related homologs, a unique 8 amino acid region at positions 590-597 was identified in APG07433.1 and its close homolog APG08290.1 (described in WO 2019/236566 and set forth herein as SEQ ID NO: 60). This region, set forth as SEQ ID NO: 365 for APG07433.1 and SEQ ID NO: 367 for APG08290.1, was removed from both proteins, resulting in variant RGNs APG07433.1-del (SEQ ID NO: 366) and APG08290.1-del (SEQ ID NO: 368). These deletion variants and their corresponding wild-type RGNs were assayed for editing activity in HEK293T cells using the guide RNAs indicated in Tables 32 and 33 following methods similar to those described in Example 1.

APG07433.1 = target: T2, APG07433.1 (Bacillus sp.); experiment: as above
T2 chain: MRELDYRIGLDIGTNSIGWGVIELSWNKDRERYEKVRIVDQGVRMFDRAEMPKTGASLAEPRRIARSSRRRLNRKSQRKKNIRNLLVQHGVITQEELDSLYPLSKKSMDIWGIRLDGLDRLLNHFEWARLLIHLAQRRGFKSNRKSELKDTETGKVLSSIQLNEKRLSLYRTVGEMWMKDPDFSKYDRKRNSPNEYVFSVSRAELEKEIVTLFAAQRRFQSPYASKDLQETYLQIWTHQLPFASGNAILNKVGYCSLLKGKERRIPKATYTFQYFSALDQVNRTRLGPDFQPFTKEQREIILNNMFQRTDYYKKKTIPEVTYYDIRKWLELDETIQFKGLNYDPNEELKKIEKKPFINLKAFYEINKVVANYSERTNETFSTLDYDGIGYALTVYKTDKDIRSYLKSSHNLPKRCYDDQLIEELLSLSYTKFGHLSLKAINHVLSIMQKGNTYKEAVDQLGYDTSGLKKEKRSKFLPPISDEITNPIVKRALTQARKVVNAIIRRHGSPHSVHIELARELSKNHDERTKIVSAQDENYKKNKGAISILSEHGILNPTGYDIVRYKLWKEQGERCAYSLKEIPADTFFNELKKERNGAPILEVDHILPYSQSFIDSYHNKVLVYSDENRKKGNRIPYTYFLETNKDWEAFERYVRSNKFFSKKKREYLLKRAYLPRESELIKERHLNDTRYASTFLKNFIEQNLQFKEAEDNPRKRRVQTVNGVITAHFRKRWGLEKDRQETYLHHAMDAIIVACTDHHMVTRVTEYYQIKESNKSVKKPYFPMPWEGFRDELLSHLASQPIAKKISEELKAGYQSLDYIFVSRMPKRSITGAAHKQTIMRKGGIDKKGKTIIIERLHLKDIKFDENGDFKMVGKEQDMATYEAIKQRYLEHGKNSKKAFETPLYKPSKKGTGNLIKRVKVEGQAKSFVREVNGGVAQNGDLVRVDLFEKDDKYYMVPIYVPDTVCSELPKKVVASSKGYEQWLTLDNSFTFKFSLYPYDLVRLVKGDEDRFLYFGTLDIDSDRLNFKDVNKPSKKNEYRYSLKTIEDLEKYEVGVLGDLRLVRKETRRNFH
Text: as §1

APG08290.1 = target: T3, APG08290.1 (Bacillus sp.); experiment: cell_activity; editing rate HEK293T; PAM not stated
T3 chain: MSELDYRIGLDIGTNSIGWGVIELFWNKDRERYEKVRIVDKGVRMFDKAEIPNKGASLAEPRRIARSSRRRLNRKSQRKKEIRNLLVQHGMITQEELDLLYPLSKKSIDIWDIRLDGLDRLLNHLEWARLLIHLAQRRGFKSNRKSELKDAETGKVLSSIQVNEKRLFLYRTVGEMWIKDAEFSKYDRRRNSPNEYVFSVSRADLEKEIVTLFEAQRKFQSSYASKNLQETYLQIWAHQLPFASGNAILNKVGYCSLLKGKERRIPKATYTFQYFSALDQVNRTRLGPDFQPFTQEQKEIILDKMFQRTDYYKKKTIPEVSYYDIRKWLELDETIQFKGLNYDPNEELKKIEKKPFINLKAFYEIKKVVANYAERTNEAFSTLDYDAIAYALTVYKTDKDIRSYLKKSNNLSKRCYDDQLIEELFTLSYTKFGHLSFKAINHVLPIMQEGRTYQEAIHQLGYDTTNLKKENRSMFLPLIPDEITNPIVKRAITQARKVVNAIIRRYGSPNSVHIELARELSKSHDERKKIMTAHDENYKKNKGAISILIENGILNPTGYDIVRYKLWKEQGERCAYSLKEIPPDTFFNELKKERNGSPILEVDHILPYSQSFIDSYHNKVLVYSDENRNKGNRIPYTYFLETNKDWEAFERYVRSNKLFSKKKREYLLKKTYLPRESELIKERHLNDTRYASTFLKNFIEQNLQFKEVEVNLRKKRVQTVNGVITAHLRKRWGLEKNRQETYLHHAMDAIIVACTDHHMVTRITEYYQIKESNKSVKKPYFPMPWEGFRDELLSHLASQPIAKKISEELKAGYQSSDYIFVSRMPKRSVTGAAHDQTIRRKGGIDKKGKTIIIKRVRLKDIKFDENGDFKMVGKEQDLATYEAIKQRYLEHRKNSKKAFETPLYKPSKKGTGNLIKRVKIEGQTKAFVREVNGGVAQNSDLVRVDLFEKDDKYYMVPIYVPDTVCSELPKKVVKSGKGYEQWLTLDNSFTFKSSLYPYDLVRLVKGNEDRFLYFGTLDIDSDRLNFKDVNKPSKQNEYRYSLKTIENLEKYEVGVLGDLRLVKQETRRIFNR
Text: as §1

APG08290.1-del = target: T4, APG08290.1-del; experiment: as above
T4 chain: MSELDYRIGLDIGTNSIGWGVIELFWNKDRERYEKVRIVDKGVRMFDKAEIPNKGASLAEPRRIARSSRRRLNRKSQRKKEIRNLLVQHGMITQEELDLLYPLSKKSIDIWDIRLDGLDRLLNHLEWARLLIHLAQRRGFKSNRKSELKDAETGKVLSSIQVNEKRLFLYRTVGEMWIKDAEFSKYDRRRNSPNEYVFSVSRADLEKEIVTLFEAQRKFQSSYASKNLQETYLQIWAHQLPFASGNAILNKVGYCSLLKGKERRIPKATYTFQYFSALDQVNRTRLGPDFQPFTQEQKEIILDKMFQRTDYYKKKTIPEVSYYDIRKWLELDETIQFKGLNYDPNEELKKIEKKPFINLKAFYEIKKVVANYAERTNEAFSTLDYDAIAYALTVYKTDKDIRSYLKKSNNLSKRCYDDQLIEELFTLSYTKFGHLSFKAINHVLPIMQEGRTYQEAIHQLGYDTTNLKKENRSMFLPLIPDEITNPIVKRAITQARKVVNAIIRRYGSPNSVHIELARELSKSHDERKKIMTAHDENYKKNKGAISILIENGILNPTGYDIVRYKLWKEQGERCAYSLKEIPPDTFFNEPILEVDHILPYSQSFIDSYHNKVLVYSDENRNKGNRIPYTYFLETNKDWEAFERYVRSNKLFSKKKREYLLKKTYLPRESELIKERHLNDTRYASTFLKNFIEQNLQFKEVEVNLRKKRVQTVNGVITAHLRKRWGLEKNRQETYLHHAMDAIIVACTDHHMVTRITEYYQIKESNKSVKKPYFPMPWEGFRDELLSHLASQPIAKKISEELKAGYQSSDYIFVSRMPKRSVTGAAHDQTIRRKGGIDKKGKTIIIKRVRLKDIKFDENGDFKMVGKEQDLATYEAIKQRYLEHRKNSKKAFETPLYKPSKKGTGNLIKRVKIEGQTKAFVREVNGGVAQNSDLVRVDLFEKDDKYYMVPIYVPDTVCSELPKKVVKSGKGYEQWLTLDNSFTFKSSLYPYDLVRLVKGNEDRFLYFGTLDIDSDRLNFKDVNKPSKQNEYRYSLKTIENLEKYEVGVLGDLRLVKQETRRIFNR
Text: as §1

B1: SGN000169 sgRNA ; SGN000169 target (ssRNA ; dsDNA)
RNA: CACAUCUCGAGCAAGACGUUGUCAUAGUUCCAUUAAAGCCAAAAGUGGCUUUGAUGUUUCUAUGAUAAGGGUUUCGACCCGUGGCGUCGGGGAUCGCCUGCCCAUUGAAAUGGGCUUCUCCCCAUUUAUU
DNA 1: CACATCTCGAGCAAGACGTT
DNA 2: AACGTCTTGCTCGAGATGTG
activity [1]: 15.5% | activity (APG07433.1): 13.4%

B2: SGN000139 sgRNA (Table 32) ; SGN000139 target (Table 32) (ssRNA ; dsDNA)
RNA: AGGUUUUAAUGGCCCAGCCUGUCAUAGUUCCAUUAAAGCCAAAAGUGGCUUUGAUGUUUCUAUGAUAAGGGUUUCGACCCGUGGCGUCGGGGAUCGCCUGCCCAUUGAAAUGGGCUUCUCCCCAUUUAUU
DNA 1: AGGTTTTAATGGCCCAGCCT
DNA 2: AGGCTGGGCCATTAAAACCT
activity (APG07433.1): 11.1%

B3: SGN000186 sgRNA (Table 32) ; SGN000186 target (Table 32) (ssRNA ; dsDNA)
RNA: GGACAGUGCGCAUCUCCCUGGUCAUAGUUCCAUUAAAGCCAAAAGUGGCUUUGAUGUUUCUAUGAUAAGGGUUUCGACCCGUGGCGUCGGGGAUCGCCUGCCCAUUGAAAUGGGCUUCUCCCCAUUUAUU
DNA 1: GGACAGTGCGCATCTCCCTG
DNA 2: CAGGGAGATGCGCACTGTCC
activity [1]: 15.2%

B4: SGN000930 sgRNA (Table 33) ; SGN000930 target (Table 33) (ssRNA ; dsDNA)
RNA: GAACAACUCAAAUGGAAAUGAAUAUGUCAUAGUUCCAUGAAAGCCAAAAGUGGCUUUGAUGUUUCUAUGAUAAGGGUUUCGGCCCGUGGCGUCGGGGAUCGCCUGCCCAUUCCGAUGGGCUUCUCCCCAUUUAUU
DNA 1: GAACAACTCAAATGGAAATGAATAT
DNA 2: ATATTCATTTCCATTTGAGTTGTTC
activity (APG08290.1): 9.93% | activity (APG08290.1-del): 6.47%

B5: SGN000929 sgRNA ; SGN000929 target (ssRNA ; dsDNA)
RNA: AUCUGGAGGGAACUUACAGCAUAUGGUCAUAGUUCCAUGAAAGCCAAAAGUGGCUUUGAUGUUUCUAUGAUAAGGGUUUCGGCCCGUGGCGUCGGGGAUCGCCUGCCCAUUCCGAUGGGCUUCUCCCCAUUUAUU
DNA 1: ATCTGGAGGGAACTTACAGCATATG
DNA 2: CATATGCTGTAAGTTCCCTCCAGAT
activity (APG08290.1): 1.83% | activity (APG08290.1-del): 0.61%
